What was measured:
[1] = biological target: T1, lysin motif (LysM) peptidoglycan-binding domain-containing protein (LPDP), recombinant (Staphylococcus lentus, UniProt A0A8I0UA09); experiment: MST
[2] = biological target: T1, lysin motif (LysM) …; experiment: MST; in the presence of tubuloside B

B1: PDZ and LIM domain 3 (PDLIM3) (natural protein)
chain: MPQNVVLPGPAPWGFRLSGGIDFNQPLVITRITPGSKAAAANLCPGDVILAIDGFGTESMTHADAQDRIKAASYQLCLKIDRAETRLWSPQVSEDGKAHPFKINLEAEPQEFKPIGTAHNRRAQPFVAAANIDDKRQVVSASYNSPIGLYSTSNIQDALHGQLRGLIPGSLQNEPTASVPPQSDVYRMLHDNRDDPAAPRQSGSFRVLQDLVNDGPDDRPAGTRSVRAPVTKVHGGAGSAQRMPLCDKCGSGIVGAVVKARDKYRHPECFVCADCNLNLKQKGYFFVEGELYCETHARARTRPPEGYDTVTLYPKA
modifications: fluorescently labeled with the Monolith His-Tag Labeling Kit (in the microscale thermophoresis only)
- Kd [1]: 930 nM
- Kd [2]: 4550 nM

Source: article PMC12931730 (2025)
